Test results published in patent US20210095027A1 (Xencor, published 2021).

Biological target: T1, human CD20 (human, UniProt P11836 1-297)
T1 sequence (looked up): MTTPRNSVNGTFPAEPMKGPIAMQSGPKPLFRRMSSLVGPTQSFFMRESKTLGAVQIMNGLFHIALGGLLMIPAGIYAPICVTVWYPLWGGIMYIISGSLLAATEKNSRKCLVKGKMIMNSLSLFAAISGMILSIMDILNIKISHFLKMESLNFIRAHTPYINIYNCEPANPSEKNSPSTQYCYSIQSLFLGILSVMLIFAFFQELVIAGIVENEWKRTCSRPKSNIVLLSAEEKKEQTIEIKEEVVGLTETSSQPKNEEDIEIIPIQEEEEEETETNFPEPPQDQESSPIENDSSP
Assay: cell-based or functional assay

B1: XENP13676 (bispecific antibody)
chain 1: QVQLVQSGAEVKKPGASVKVSCKASGYTFTSYNMHWVRQAPGQGLEWMGAIYPGNGDTSYNQKFQGRVTITADKSISTAYMELSSLRSEDTAVYYCARSTYYGGDWYFNVWGAGTLVTVSSASTKGPSVFPLAPSSKSTSGGTAALGCLVKDYFPEPVTVSWNSGALTSGVHTFPAVLQSSGLYSLSSVVTVPSSSLGTQTYICNVNHKPSDTKVDKKVEPKSCDKTHTCPPCPAPPVAGPSVFLFPPKPKDTLMISRTPEVTCVVVDVKHEDPEVKFNWYVDGVEVHNAKTKPREEEYNSTYRVVSVLTVLHQDWLNGKEYKCKVSNKALPAPIEKTISKAKGQPREPQVYTLPPSREEMTKNQVSLTCDVSGFYPSDIAVEWESDGQPENNYKTTPPVLDSDGSFFLYSKLTVDKSRWEQGDVFSCSVMHEALHNHYTQKSLSLSPGK
chain 2: not shown
light: QIVLTQSPSSLSASVGDRVTITCRASSSVSYIHWFQQKPGKSPKPLIYATSNLASGVPVRFSGSGSGTDYTLTISSLQPEDFATYYCQQWTSNPPTFGGGTKVEIKRTVAAPSVFIFPPSDEQLKSGTASVVCLLNNFYPREAKVQWKVDNALQSGNSQESVTEQDSKDSTYSLSSTLTLSKADYEKHKVYACEVTHQGLSSPVTKSFNRGEC
EC50 of Jeko-1 target cell killing (RTCC) in the absence of rituximab: 0.024 µg/mL | EC50 of Jeko-1 target cell killing (RTCC) in the presence of 3 µg/ml rituximab: 0.051 µg/mL | EC50 of Jeko-1 target cell killing (RTCC) in the presence of 10 µg/ml rituximab: 0.093 µg/mL | EC50 of Jeko-1 target cell killing (RTCC) in the presence of 30 µg/ml rituximab: 0.162 µg/mL | EC50 of Jeko-1 target cell killing (RTCC) in the presence of 100 µg/ml rituximab: 0.387 µg/mL | EC50 of RTCC against Ramos cells with purified T cells from six healthy donors: 0.0053 to 0.0143 µg/mL
